Laboratory results taken from patent publication US20260176358A1 (JIANGSU HENGRUI PHARMACEUTICALS, published 2026).
Changes are numbered by the printed parent chain. Read-outs that look alike come from different tables or passages of the source.

T1: PACAP38 (UniProt P18509 132-169, biotinylated in the ELISAs)
T1 peptide (looked up): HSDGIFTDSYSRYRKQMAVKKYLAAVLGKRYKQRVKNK

T2: PACAP27 (UniProt P18509 132-158, biotinylated in the ELISAs)
T2 peptide (looked up): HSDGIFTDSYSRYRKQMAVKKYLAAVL

T3: rat CGRP (rat, UniProt P01256 83-119)
T3 peptide (looked up): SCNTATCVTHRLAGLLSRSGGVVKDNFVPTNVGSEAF

T4: human CGRP (human, UniProt P06881 83-119)
T4 peptide (looked up): T3 peptide (looked up) with S1A, N3D, D25N, E35K

B1: P96#-CHI (antibody, human IgG1, kappa, V domains shown)
VH: EVQLQQSGADLVRPGALVKLSCKASGFNIKDYYMHWVKQRPEQGLEWIGWIDPENGNTLYDPKFQDKASITTDTSSNTAYLQLSSLTSEDTAVYYCVFGVMTTVEGDFDYWGQGTALTVSS
VL: QAVVTQESALTTSPGETVTLTCRSSSGTVTTSNYANWVQEKPDHLFTGLIGGTNNRAPGAPARFSGSLIGDKAALTITGAQTEDEAIYFCALWYSNHWVFGGGTKLTVLR
notes: chimeric: murine variable regions fused to human constant regions; also called P96#-CH1
B2: CP-1 (bispecific antibody)
heavy: EVQLVESGGGLVQPGGSLRLSCAASGFAFNNYDMSWVRQAPGKGLEWVATITGGGSYTWYPDSVKGRFTISRDNAKNSLYLQMNSLRAEDTAVYYCARLTGYDQAGAMDYWGQGTTVTVSSASTKGPSVFPLAPSSKSTSGGTAALGCLVKDYFPEPVTVSWNSGALTSGVHTFPAVLQSSGLYSLSSVVTVPSSSLGTQTYICNVNHKPSNTKVDKKVEPKSCEVQLVQSGAEVKKPGASVKVSCKASGYTFTDYYMNWVRQAPGQCLEWIGDINPNQGGTNYNQKFKGRATLTVDKSASTAYMELSSLRSEDTAVYYCASIIIVPNYFDYWGQGTTVTVSSGGGGSGGGGSGGGGSDIQMTQSPSSLSASVGDRVTITCKASQNVDTNVAWFQQKPGKAPKSLIYSASYRYSGVPSRFSGSGSGTDFTLTISSLQPEDFATYYCQQYNNYPYTFGCGTKVEIKGGGDKTHTCPPCPAPELLGGPSVFLFPPKPKDTLYITREPEVTCVVVDVSHEDPEVKFNWYVDGVEVHNAKTKPREEQYNSTYRVVSVLTVLHQDWLNGKEYKCKVSNKALPAPIEKTISKAKGQPREPQVYTLPPSRDELTKNQVSLTCLVKGFYPSDIAVEWESNGQPENNYKTTPPVLDSDGSFFLYSKLTVDKSRWQQGNVFSCSVMHEALHNHYTQKSLSLSPGK
light: DIVLTQSPDSLAVSLGERATINCKASQSVDYDGDSYMTWYQQKPGQPPKLLIYAASHLDSGIPDRFSGSGSGTDFTLTISSLQAEDVAVYYCQQSNEDPWTFGGGTKVEIKRTVAAPSVFIFPPSDEQLKSGTASVVCLLNNFYPREAKVQWKVDNALQSGNSQESVTEQDSKDSTYSLSSTLTLSKADYEKHKVYACEVTHQGLSSPVTKSFNRGEC
notes: Format 2+2, anti-PACAP Fab (P14H2L3) and anti-CGRP scFv (C21H5L3), IgG1 (YTE) Fc; also called Biotin-CP-1
B3: CP-2 (bispecific antibody)
heavy: EVQLVESGGGLVQPGGSLRLSCAASGFAFNNYDMSWVRQAPGKGLEWVATITGGGSYTWYPDSVKGRFTISRDNAKNSLYLQMNSLRAEDTAVYYCARLTGYDQAGAMDYWGQGTTVTVSSASTKGPSVFPLAPSSKSTSGGTAALGCLVKDYFPEPVTVSWNSGALTSGVHTFPAVLQSSGLYSLSSVVTVPSSSLGTQTYICNVNHKPSNTKVDKKVEPKSCEVQLVQSGAEVKKPGASVKVSCKASGYTFTDYYMNWVRQAPGQCLEWMGDINPNTGVTTYNQKFKGRVTITVDKSASTAYMELSSLRSEDTAVYYCASIIIVPDYFDYWGQGTTVTVSSGGGGSGGGGSGGGGSDIQMTQSPSSVSASVGDRVTITCKASQNVGSNVAWYQQKPGKSPKALIYSASYRYSGVPSRFSGSGSGTDFTLTISSLQPEDFATYYCQQYNSYPYTFGCGTKVEIKGGGDKTHTCPPCPAPELLGGPSVFLFPPKPKDTLYITREPEVTCVVVDVSHEDPEVKFNWYVDGVEVHNAKTKPREEQYNSTYRVVSVLTVLHQDWLNGKEYKCKVSNKALPAPIEKTISKAKGQPREPQVYTLPPSRDELTKNQVSLTCLVKGFYPSDIAVEWESNGQPENNYKTTPPVLDSDGSFFLYSKLTVDKSRWQQGNVFSCSVMHEALHNHYTQKSLSLSPGK
light: B2 light
notes: Format 2+2, anti-PACAP Fab (P14H2L3) and anti-CGRP scFv (C28H8L2), IgG1 (YTE) Fc; also called Biotin-CP-2
B4: HJ-11 (bispecific antibody)
chain 1: not shown
chain 2: DIQMTQSPSSVSASVGDRVTITCRASQDIANYLSWYQQKPGKSPKLLIYGTSNLEVGVPSRFSGSRSGTDFTLTISSLQPEDFATYYCLQDKEFPRTFGGGTKVEIKRTVASSGCPRFLTRPKASVVSVGKDATLSCQIVGNPFPQVSWEKDKQPVTAGVRFRLAQDGDLYRLKILDLQLSDSGQYVCRARNAHGEAFACLGLQVDAEA
chain 3: EVQLVQSGAEVKKPGSSVKVSCKASGYTFSNYLIEWVRQAPGQGLEWIGVIDPGVGDTNYNENFKGRATLTADKSTSTAYIELSSLRSEDTAVYYCAREDNTGTAFDYWGQGTTVTVSSASTKGPSVFPLAPSSKSTSGGTAALGCLVKDYFPEPVTVSWNSGALTSGVHTFPAVLQSSGLYSLSSVVTVPSSSLGTQTYICNVNHKPSNTKVDKKVEPKSCDKTHTCPPCPAPEAAGGPSVFLFPPKPKDTLMISRTPEVTCVVVDVSHEDPEVKFNWYVDGVEVHNAKTKPREEQYNSTYRVVSVLTVLHQDWLNGKEYKCKVSNKALPAPIEKTISKAKGQPREPQVCTLPPSREEMTKNQVSLSCAVKGFYPSDIAVEWESNGQPENNYKTTPPVLDSDGSFFLVSKLTVDKSRWQQGNVFSCSVMHEALHNHYTQKSLSLSPGK
chain 4: SIVMTQTPLSLSVTPGQPASISCKASQSVSSDVTWYLQKPGQSPQLLIYYVSEHYTGVPDRFSGSGYGTDFTLKISRVEAEDVGVYYCQQHHRFPLTFGQGTKLEIKRTVAAPSVFIFPPSDEQLKSGTASVVCLLNNFYPREAKVQWKVDNALQSGNSQESVTEQDSKDSTYSLSSTLTLSKADYEKHKVYACEVTHQGLSSPVTKSFNRGEC
B5: C21H2L1 (antibody, human IgG1, kappa, V domains shown)
VH: EVQLVQSGAEVKKPGASVKVSCKASGYTFTDYYMNWVRQAPGQRLEWIGDINPNQGGTNYNQKFKGRATLTVDKSASTAYMELSSLRSEDTAVYYCASIIIVPNYFDYWGQGTTVTVSS
VL: DIQMTQSPSSLSASVGDRVTITCKASQNVDTNVAWFQQKPGKAPKSLIYSASYRYSGVPSRFSGSGSGTDFTLTISSLQPEDFATYYCQQYNNYPYTFGGGTKVEIKR
notes: also called Biotin-C21H2L1
B6: C28H6L1 (antibody, human IgG1, kappa, V domains shown)
VH: B5 VH with I48M, Q55T, G57V, N59T, A68V, L70I, N104D
VL: B5 VL with L11V, D30G, T31S, F36Y, A43S, S46A, N93S
notes: also called Biotin-C28H6L1
B7: P96H1L1 (antibody, human IgG1, kappa, V domains shown)
VH: EVQLVQSGAEVKKPGATVKISCKASGFNIKDYYMHWVQQAPGKGLEWMGWIDPENDNTLYDPKFQDRVTITTDTSTNTAYMELSSLRSEDTAVYYCVFGVMTTVEGDFDYWGQGTTVTVSS
VL: ETVVTQEPSLTVSPGGTVTLTCRSSSGTVTTSNYANWVQQKPGQAFRGLIGGTNNRAPGAPARFSGSLLGGKAALTLSGVQPEDEAEYYCALWYSNHWVFGGGTKLTVLR

Legend:
[1] = biological target: T1, PACAP38; experiment: cell-based or functional assay
[2] = biological target: T1, PACAP38; experiment: competition ELISA, biotinylated PACAP38 to coated PAC1-Fc
Protocol: (§1) The plates were incubated for 1 h and washed, and a horseradish peroxidase-labeled streptavidin secondary antibody was then added. After incubation, color development was performed.

[3] = biological target: T1, PACAP38; experiment: competition ELISA, biotinylated PACAP38 to coated VPAC1-Fc
Protocol: as §1

[4] = biological target: T1, PACAP38; experiment: competition ELISA, biotinylated PACAP38 to coated VPAC2-Fc
Protocol: as §1

[5] = biological target: CGRP; experiment: cell-based or functional assay
[6] = biological target: T1, PACAP38; experiment: cell-based or functional assay
[7] = biological target: T1, PACAP38; experiment: ELISA, antibody on coated anti-human Fc, biotinylated peptide
Protocol: (§2) Plates were coated with 1 μg/mL anti-human Fc and blocked, and the antibodies, serially diluted, were added. […] The plates were incubated for 1 h and washed, and a horseradish peroxidase-labeled streptavidin secondary antibody was then added. After incubation, color development was performed.

[8] = biological target: T2, PACAP27; experiment: as above
Protocol: as §2

[9] = biological target: T3, rat CGRP; experiment: SPR, Biacore 8K, antibody captured on Protein A chip, 1:1 model
Protocol: A Protein A biosensor chip was used to affinity-capture IgG, and a molecule sample was then allowed to flow through the surface of the chip. Reaction signals were detected in real time using a Biacore 8K system to obtain association and dissociation curves. After the dissociation in each experimental cycle was complete, the biosensor chip was washed and regenerated 3 times with 50 mM NaOH. Data fitting was performed using a 1:1 model.

[10] = biological target: T4, human CGRP; experiment: SPR, Biacore 8K, 25 C, biotinylated antibody on SA chip, 1:1 model
Protocol: First, the test antibodies ([…] for the mAbs and 4 μg/mL for the diabodies), biotinylated (indicated by Biotin-), were each coupled onto an SA biosensor chip. Then samples of the antigen human CGRP were sequentially injected in ascending order for 180 s, followed by dissociation. After the test was finished, fitting was performed using a 1:1 binding model.

[11] = biological target: hIL5 (human, UniProt P05113 20-134); experiment: method of Test Example 4 of WO2021139758
[12] = biological target: hTSLP (human, UniProt Q969D9 29-159); experiment: method of Test Example 4 of WO2021139758
[13] = biological target: T4, human CGRP; experiment: ELISA, coated CGRP
Protocol: (§3) In this test example, the abilities of the chimeric antibodies and humanized antibodies of C1 #, C9 #, C21 #, and C28 #to bind to human CGRP and rat CGRP were assessed using ELISAs. Plates were coated with […] human CGRP and rat CGRP, respectively, and blocked, and the antibodies, serially diluted, were then added. The plates were incubated for 1 h and washed, and a horseradish peroxidase-labeled anti-human Fc secondary antibody was then added. After incubation, color development was performed. […] The plates were incubated for 1 h and washed, and the antibodies, serially diluted, were then added. The plates were incubated for 1 h and washed, and a horseradish peroxidase-labeled streptavidin secondary antibody was then added. After incubation, color development was performed.

[14] = biological target: T3, rat CGRP; experiment: ELISA, coated CGRP
Protocol: as §3

[15] = biological target: CGRP; experiment: cell-based or functional assay; remark: listed apart in the source

Binder | IC50, inhibition of cAMP production in SH-SY5Y cells [1] [nM] | IC50 [2] [nM] | IC50 [3] [nM] | IC50 [4] [nM] | IC50, inhibition of cAMP production in SK-N-MC cells [5] [nM] | IC50, inhibition of cAMP production in SH-SY5Y cells [6] [nM] | EC50 [7] [nM] | EC50 [8] [nM] | Kd [9] [nM] | koff [9] [s⁻¹] | kon [9] [M⁻¹ s⁻¹] | Kd [10] [nM] | koff [10] [s⁻¹] | kon [10] [M⁻¹ s⁻¹] | EC50 [11] [nM] | EC50 [12] [nM] | EC50 [13] [nM] | EC50 [14] [nM] | IC50, inhibition of cAMP production in SK-N-MC cells [15] [nM]
B1 | 8.26 | 0.83 | 0.53 | 0.68 | – | – | – | – | – | – | – | – | – | – | – | – | – | – | –
B2 | – | – | – | – | 2.66 | 4.31 | 0.15 | 0.28 | 0.778 | 0.00116 | 1.5e+06 | 0.00715 | 1.77e-05 | 2.48e+06 | – | – | – | – | –
B3 | – | – | – | – | 2.03 | 1.92 | 0.1 | 0.16 | 0.358 | 0.000743 | 2.07e+06 | 0.0117 | 2.35e-05 | 2e+06 | – | – | – | – | –
B4 | – | – | – | – | – | – | – | – | – | – | – | – | – | – | 9.46 | 3 | – | – | –
B5 | – | – | – | – | 1.98 | – | – | – | 0.103 | 0.000232 | 2.25e+06 | 0.00381 | 1.92e-05 | 5.04e+06 | – | – | 2.3 | 4.26 | 1.25
B6 | – | – | – | – | 1.61 | – | – | – | 0.0674 | 0.000139 | 2.06e+06 | 0.00479 | 2.41e-05 | 5.03e+06 | – | – | 1.26 | 5.29 | 2.49
B7 | 1.79 | 0.76 | 0.53 | 0.61 | – | – | – | – | – | – | – | – | – | – | – | – | – | – | –
